This data set deals with MS2 coat protein. Description: apparent KD of MS2 coat protein; designed switch direction (-1 OFF switch, 1 ON switch): -1; higher = weaker reporter binding. Put shortly:
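Transcription of designed RNA switches on Illumina chips was done by stalled E. coli RNA polymerase. SNAP-549-labelled MS2 coat protein was then titrated in doubling steps from 0.7 or 1.5 nM to 3 µM, with steps of 0.8–1.5 h at the lowest and 10–20 min at the highest concentration. The per-design median over clusters of curve-fitted normalised fluorescence is reported as apparent KD.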

Where [1] appears, read: input ligand: microRNA oligo, concentration not stated.
Setting [2] is: Eterna round: R95, input ligand: FMN 200 uM.
[3] abbreviates: Eterna round: R95, input ligand: microRNA oligo, concentration not stated.
Where [4] appears, read: Eterna round: R95, input ligand: none.

Take “ACGUGAUAUCUGUCGGUGGACAUGAGGAUCACCCAUGUAAGCUUUUUGCUUGUCUUAUAACCCGGUGACAGACCUUC [Inxeer] (Eterna round: R96, puzzle: Sensor v3, turn-off variant 1)”: the “apparent KD of MS2 coat protein” value by setting is: (input ligand: FMN 200 uM) 0.0355 µM; under setting [1], 0.349 µM; (input ligand: none) 0.0351 µM.
With “ACGUGAUAUCUGUCGGUGGACAUGAGGAUCACCCAUGUAAGCUUUUUGCUUGUCUUAUAACCCGGUGACAGACCUUC [Inxeer] (puzzle: Sensor v3, turn-off variant 1)”, the “apparent KD of MS2 coat protein” value is, setting by setting: under setting [2], 0.0231 µM; under setting [3], 0.54 µM; under setting [4], 0.0265 µM.
On to “ACGUGAUAUCUGUCGGUGGACAUGAGGAUCACCCAUGUGAGCUUUUUGCUCGUCUUACAACCCGGUGACAGACCUUC [Bebitier] (puzzle: Sensor v3, turn-off variant 1)”, for which the “apparent KD of MS2 coat protein” value worked out at 0.0236 µM under setting [2], 0.262 µM under setting [3] and 0.0214 µM under setting [4].
For the sequence “ACGUUGUCAGGAUAUCGUUAAUUUAGUUGUUUGUAUUAGUUCGAGAAGGGACAUGAGGAUCACCCAUGUUUGAA [Ex4 #34] (Eterna round: R97, puzzle: Exclusion 4)”, the “apparent KD of MS2 coat protein” value (input ligand: FMN 200 uM) is 0.0362 µM and the “apparent KD of MS2 coat protein” value (input ligand: none) amounted to 0.0315 µM.
On to “ACUAAGGUAGGAUAUACGUGCGUGAUCGUGCCUUAGCUGGCACAUGAGGAUCACCCAUGUAGAAGGGCCAGACA [Esraleon] (Eterna round: R97, puzzle: Exclusion 2)”, for which the “apparent KD of MS2 coat protein” value (input ligand: FMN 200 uM) was 0.0174 µM and the “apparent KD of MS2 coat protein” value (input ligand: none) turned out to be 0.0198 µM.
Taken in the same sequence, the figures for “ACUCAGUGAGGAUAUCGCCAGAGAACCGUAACGGUCUCUGAUGAGAAGGCACAUGAGGAUCACCCAUGUAAGCA [EX4 C.3] (Eterna round: R97, puzzle: Exclusion 4)” were 0.278 µM and 0.174 µM.
As for “ACUCGACAUGAGGAUCACCCAUGUGAGGAUAUGGCCUGUAUGGCGUGAGCUGGCUCAGUCAGAAGGCGCGUGGG [salish99_ex1_r4_047] (Eterna round: R97, puzzle: Exclusion 1)”, the “apparent KD of MS2 coat protein” value is, setting by setting: (input ligand: FMN 200 uM) 0.151 µM; (input ligand: none) 0.123 µM.
In the same order, the values of “ACUCGACAUGAGGAUCACCCAUGUGAGGAUAUGGCCUGUAUGGCGUGAGCUGGCUCUGUCAGAAGGCGCGUGGG [salish99_ex1_r4_046] (Eterna round: R97, puzzle: Exclusion 1)” are 0.0555 µM and 0.059 µM.
As for “ACUCUUCCUGUUAGGAUAUGCAUCGGGCUUCCGCAGCAGAAGGAACAUGAGGAUCACCCAUGUCAAAUAAAAUC (Eterna round: R97, puzzle: Brourd's mod of Exclusion 4)”, the “apparent KD of MS2 coat protein” value came out at 0.0331 µM (input ligand: FMN 200 uM) and 0.0174 µM (input ligand: none).
Consider “ACUCUUCUAGUUAGGAUAUGCAUCGGGCUUCCGCAGCAGAAGGAACAUGAGGAUCACCCAUGUCAAAUAAAAUC (Eterna round: R97, puzzle: Brourd's mod of Exclusion 4)”, for which the “apparent KD of MS2 coat protein” value (input ligand: FMN 200 uM) was determined as 0.0348 µM and the “apparent KD of MS2 coat protein” value (input ligand: none) turned out to be 0.0206 µM.
In the same order, the values of “ACUGGAGCAGGAUAUAUAUGACGUGCUUCGGCACGAAGGUCACAUGAGGAUCACCCAUGUAGAAGGGCUCCAGU [E2/9-D1] (Eterna round: R97, puzzle: Exclusion 2)” are 0.225 µM and 0.0467 µM.
As for “ACUGUUUGAUACCUCUAAUACAUGAGGAUCACCCAUGUUAUCGAGGAUAUGCAUUAGAGUGGUUAGCAGAAGGCGAAGUAAUUG [JR_ExcNG3_Sub031] (Eterna round: R96, puzzle: Exclusion NG 3)”, the “apparent KD of MS2 coat protein” value runs as follows: (input ligand: FMN 200 uM) 0.017 µM; under setting [1], 0.0142 µM; (input ligand: none) 0.0216 µM.
For the sequence “ACUUAUUGAGGAUAUACAGAUUAUUACAUGAGGAUCACCCAUGUUCUUCAAUGUAUAUAUGUAGAAGGCAGAAGAU [Mat - Exclusion 5 - JL Mod - D15] (Eterna round: R97, puzzle: Exclusion 5)”, the “apparent KD of MS2 coat protein” value is 0.177 µM (input ligand: FMN 200 uM) and 0.0575 µM (input ligand: none).
Regarding “ACUUAUUGAGGAUAUACAUAAAUUUACAUGAGGAUCACCCAUGUUCUUCUAUGUAUAUAUGUAGAAGGCAGAAGAU [Mat - Exclusion 5 - JL Mod - D32] (Eterna round: R97, puzzle: Exclusion 5)”, the “apparent KD of MS2 coat protein” value was found to be 0.0292 µM (input ligand: FMN 200 uM) and 0.0193 µM (input ligand: none).
Regarding “ACUUCGUCAGGAUAUCGAGUGACCAAGUACACUGGCUUGGCUGAGAAGGGACAUGAGGAUCACCCAUGUGGGAG [Eternabot (L1) Solution 52] (Eterna round: R97, puzzle: Exclusion 4)”, the “apparent KD of MS2 coat protein” value was found to be 0.356 µM (input ligand: FMN 200 uM) and 0.187 µM (input ligand: none).
Take “AGAAACUCAAGAGGAUAUCACAUGAGGAUCACCCAUGUAUAGCGCGCUAUGCUAGUCCUCGUAUUUGAGAAGGUUUGAUAAAUG [Mat - Exclusion NG 2 - Mod of JL - D78] (Eterna round: R96, puzzle: Exclusion NG 2)”: the “apparent KD of MS2 coat protein” value runs as follows: (input ligand: FMN 200 uM) 0.0162 µM; under setting [1], 0.0142 µM; (input ligand: none) 0.0169 µM.
On to “AGAAGAAAAGAGAUUUGCUCGUCUUAUAAGUAUGAAGUAACAUGAGGAUCACCCAUGUAAGUCUAGUGAGAAGGAAG [JR_SV3TOV2_Sub001] (puzzle: Sensor v3, turn-off variant 2)”, for which the “apparent KD of MS2 coat protein” value reads like this: under setting [2], 0.0229 µM; under setting [3], 0.05 µM; under setting [4], 0.0244 µM.
Take “AGAAGUGCCGAGGAUAUCCAGGCAAUCUCGUUCGGAGAAGGCGGCACUUGAGGAUCACCCAAGUGCUCCUAAGA [Islariat] (Eterna round: R97, puzzle: Exclusion 6)”: the “apparent KD of MS2 coat protein” value by setting is: (input ligand: FMN 200 uM) 0.0521 µM; (input ligand: none) 0.0141 µM.
Regarding “AGACAGUCAGGAUAUACAUGAGGAUCACCCAUGUUAAGAAGAGAAAGGGCAGGAAGAGGUAGAAGGGACAAGAA [JR_Exclu3_Sub033] (puzzle: Exclusion 3)”, the “apparent KD of MS2 coat protein” value under setting [2] worked out at 0.0211 µM, the “apparent KD of MS2 coat protein” value under setting [3] was determined as 0.0236 µM and the “apparent KD of MS2 coat protein” value under setting [4] was determined as 0.0295 µM.
As for “AGAGAAAAUCUAGGAUAUGUGUAUGCCGCGUGCGCAGAAGGAGACAUGAGGAUCACCCAUGUAAAGAGACAGAAGACGACCAAA [Matt's Exclusion] (Eterna round: R96, puzzle: Exclusion NG 1)”, the “apparent KD of MS2 coat protein” value stood at 0.0557 µM (input ligand: FMN 200 uM), 0.0387 µM under setting [1] and 0.0675 µM (input ligand: none).
As to “AGAGUACUGCGAGGAUAUACAUGAGGAUCACCCAUGUGGUGGUGUGAGGCAAAGCCUCACACCAUGUAGAAGGCGCAGUACUCA [Mat - Exclusion NG 2 - Mod of JL - D20] (Eterna round: R96, puzzle: Exclusion NG 2)”, the “apparent KD of MS2 coat protein” value runs as follows: (input ligand: FMN 200 uM) 0.159 µM; under setting [1], 0.0266 µM; (input ligand: none) 0.0423 µM.
In the same order, the values of “AGAGUGCUGCGAGGAUAUACAUGAGGAUCACCCAUGUAAACCUGUGAGGCAAAGCCUCACAGGAUGUAGAAGGCGCAGUACUCA [Mat - Exclusion NG 2 - Mod of JL - D40] (Eterna round: R96, puzzle: Exclusion NG 2)” are 0.02 µM, 0.00882 µM and 0.0195 µM.
Regarding “AGAGUGCUGCGAGGAUAUACAUGAGGAUCACCCAUGUAAACGUGUGAGGCAAAGCCUCACACGAUGUAGAAGGCGCAGUACUCA [Mat - Exclusion NG 2 - Mod of JL - D37] (Eterna round: R96, puzzle: Exclusion NG 2)”, the “apparent KD of MS2 coat protein” value (input ligand: FMN 200 uM) is 0.0196 µM, the “apparent KD of MS2 coat protein” value under setting [1] worked out at 0.0117 µM and the “apparent KD of MS2 coat protein” value (input ligand: none) amounted to 0.0215 µM.
In the case of “AGAGUGCUGCGAGGAUAUACAUGAGGAUCACCCAUGUGGUCCUGUGAGGGAAAACCUCACAGGAUGUAGAAGGCGCAGUACUCA [Mat - Exclusion NG 2 - Mod of JL - D47] (Eterna round: R96, puzzle: Exclusion NG 2)”, the “apparent KD of MS2 coat protein” value worked out at 0.0532 µM (input ligand: FMN 200 uM), 0.0109 µM under setting [1] and 0.0163 µM (input ligand: none).
As to “AGAUAGUCAGGAUAUUAGUAAUAAAAGGAUAAUAAUAUUACUGAGAAGGGACAUGAGGAUCACCCAUGUAAUAU [JR_Ex4_Sub061] (Eterna round: R97, puzzle: Exclusion 4)”, the “apparent KD of MS2 coat protein” value was found to be 0.0445 µM (input ligand: FMN 200 uM) and 0.0275 µM (input ligand: none).
With “AGAUAGUGCAGAGGAUAUCGUAAUAGAAAGAAUCGAGAAGGCUGACAUGAGGAUCACCCAUGUGAUGUCUUGAGACUACAUGGU [Prohibition 34 - Jieux - Exclusion NG 1] (Eterna round: R96, puzzle: Exclusion NG 1)”, the “apparent KD of MS2 coat protein” value is, setting by setting: (input ligand: FMN 200 uM) 0.461 µM; under setting [1], 0.0628 µM; (input ligand: none) 0.0831 µM.
In the same order, the values of “AGAUAGUGCUGAGGAUAUCUUAAUAGAAAGAAUAGAGAAGGCGGACAUGAGGAUCACCCAUGUGAGGUCUUGAGACUACAUGGU [Prohibition 36 - Jieux - Exclusion NG 1] (Eterna round: R96, puzzle: Exclusion NG 1)” are 0.366 µM, 0.0716 µM and 0.135 µM.
For the sequence “AGAUCACAUGAGGAUCACCCAUGUCAGGAUAUCGUCACUGGAGCUGCGGCUCCAGUGACGAGAAGGGACAUAAU [E1/2-A3] (Eterna round: R97, puzzle: Exclusion 1)”, the “apparent KD of MS2 coat protein” value was found to be 0.252 µM (input ligand: FMN 200 uM) and 0.326 µM (input ligand: none).
Taken in the same sequence, the figures for “AGAUCACAUGAGGAUCACCCAUGUGAGGAUAUCGACUGAACAGCUUCGGCUGUUCAGUCGAGAAGGCACAAUUA [EX1 #41] (Eterna round: R97, puzzle: Exclusion 1)” were 0.0451 µM and 0.0238 µM.
